Consider six molecules from article PMC6942403, “RNA sequencing reveals an additional Crz1-binding motif in promoters of its target genes in the human fungal pathogen Candida albicans”.

The target of data set [1] is T1, His6-CaCrz1 (Candida albicans, UniProt Q5A4H5 1-731).
T1 sequence: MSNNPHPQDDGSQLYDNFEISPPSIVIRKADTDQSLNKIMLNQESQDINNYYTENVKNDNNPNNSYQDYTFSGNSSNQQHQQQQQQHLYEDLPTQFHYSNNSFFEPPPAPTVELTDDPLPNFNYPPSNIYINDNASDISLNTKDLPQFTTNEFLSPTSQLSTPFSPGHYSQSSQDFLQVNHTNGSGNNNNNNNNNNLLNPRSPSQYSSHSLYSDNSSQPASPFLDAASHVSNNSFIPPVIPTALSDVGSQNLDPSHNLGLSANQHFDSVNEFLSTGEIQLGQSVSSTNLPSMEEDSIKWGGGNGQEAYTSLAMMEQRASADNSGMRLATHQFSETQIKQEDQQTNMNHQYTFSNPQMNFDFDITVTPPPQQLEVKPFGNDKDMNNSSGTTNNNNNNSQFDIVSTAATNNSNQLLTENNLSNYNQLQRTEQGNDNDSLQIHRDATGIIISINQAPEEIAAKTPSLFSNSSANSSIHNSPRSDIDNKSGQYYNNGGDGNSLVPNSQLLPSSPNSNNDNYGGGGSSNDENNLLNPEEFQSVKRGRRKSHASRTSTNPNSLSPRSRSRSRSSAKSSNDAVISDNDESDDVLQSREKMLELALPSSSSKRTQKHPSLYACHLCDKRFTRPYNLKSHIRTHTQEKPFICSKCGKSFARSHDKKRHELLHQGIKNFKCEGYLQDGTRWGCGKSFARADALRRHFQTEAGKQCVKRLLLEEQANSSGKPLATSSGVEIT
Description: EMSA; 1 ug protein; abolished by unlabelled Probe 1; EMSA with DIG-labelled probes and 1 ug His6-Crz1; buffer, salt, pH and temperature not given in the material. Particulars: protein: recombinant, tags: N-terminal His6 (pET28a(+)), label: DIG.

The target of data set [2] is T1, His6-CaCrz1. Description: EMSA; 1 ug protein; EMSA with DIG-labelled probes and 1 ug His6-Crz1; buffer, salt, pH and temperature not given in the material. Particulars: protein: recombinant; tags: N-terminal His6 (pET28a(+)); label: DIG; blunt. Background: A gel shift assay detects complexes by their altered migration in electrophoresis.
Data set [3] addresses T1, His6-CaCrz1. Description: EMSA; 1 ug protein; abolished by unlabelled Probe 2; EMSA with DIG-labelled probes and 1 ug His6-Crz1; buffer, salt, pH and temperature not given in the material. Conditions: protein: recombinant; tags: N-terminal His6 (pET28a(+)); label: DIG.

B1: CRZ1 Probe 1 (dsDNA)
DNA 1: TGTGTGTGTGTGTGACAGTCCAGTCCCTCAACTAATTTAAAACAGTTTTT
DNA 2: AAAAACTGTTTTAAATTAGTTGAGGGACTGGACTGTCACACACACACACA
Regarding B1, the binding result with His6-CaCrz1 [1] (blunt) is “binds”.

B2: CRZ1 Probe 4 (dsDNA)
DNA 1: AACAATTTAATCTGGTCATTTCATTTCCCCTAACAGCATCTTTCCAAGTT
DNA 2: AACTTGGAAAGATGCTGTTAGGGGAAATGAAATGACCAGATTAAATTGTT
Take B2: the binding result with His6-CaCrz1 [2] was “no binding”.

B3: UTR2 Probe 2 EMSA_UTR2_F/R(M) (dsDNA)
DNA 1: GGCTTAAATTCTTGAGTTGTGGGCTTTGAATTTCTTTCATTTCAT
DNA 2: ATGAAATGAAAGAAATTCAAAGCCCACAACTCAAGAATTTAAGCC
Take B3: the binding result with His6-CaCrz1 [3] is “binds”.

B4: UTR2 Probe 1 EMSA_UTR2_F/R(H) (dsDNA)
DNA 1: CTTTCATTTCATTTCTTTTCTCAACGCCTCAAAATTTGATTCTTAAAATT
DNA 2: AATTTTAAGAATCAAATTTTGAGGCGTTGAGAAAAGAAATGAAATGAAAG
As for B4, the binding result with His6-CaCrz1 [1] is on record as “binds”.

B5: CRZ1 Probe 3 (dsDNA)
DNA 1: TTTCAACTTCCATCATATTTACCACAATTGGATTAACTTGGTTAT
DNA 2: ATAACCAAGTTAATCCAATTGTGGTAAATATGATGGAAGTTGAAA
In the case of B5, the binding result with His6-CaCrz1 [2] is “no binding”.

B6: CRZ1 Probe 2 (dsDNA)
DNA 1: ATTAGAATAGAATATTATCACAGACCCCCCCAATATCTATTTATCAACCT
DNA 2: AGGTTGATAAATAGATATTGGGGGGGTCTGTGATAATATTCTATTCTAAT
Consider B6, for which, in the data set with His6-CaCrz1 [2], the binding result was “no binding”.
